Data: patent US20110230370A1 (CALIFORNIA INSTITUTE OF TECHNOLOGY, published 2011)

B1: synthetic peptide XIFSTDTGPGGC with X=Met (peptide)
peptide: MIFSTDTGPGGC
notes: also called nsP4-derived control peptide (X=Met)
B2: synthetic peptide XIFSTDTGPGGC with X=Arg (peptide)
peptide: RIFSTDTGPGGC
notes: also called nsP4-derived control peptide (X=Arg)
B3: synthetic peptide XIFSTDTGPGGC with X=Phe (peptide)
peptide: FIFSTDTGPGGC
notes: also called nsP4-derived control peptide (X=Phe)

What was measured:
[1] = molecular target: ^MNMATα2f (wild-type full-length MATα2, C-terminally flag-tagged) (S. cerevisiae) (UniProt P0CY08); experiment: cell-based or functional assay
[2] = molecular target: T1, Doa10myc13 (full-length, C-terminally myc13-tagged S. cerevisiae Doa10 E3 Ub ligase) (S. cerevisiae, UniProt P40318 1-1319); experiment: X-peptide pulldown from yeast extract, anti-myc immunoblot
T1 construct: mature; also called mycn-tagged Doa10; Doa10men
T1 sequence (looked up): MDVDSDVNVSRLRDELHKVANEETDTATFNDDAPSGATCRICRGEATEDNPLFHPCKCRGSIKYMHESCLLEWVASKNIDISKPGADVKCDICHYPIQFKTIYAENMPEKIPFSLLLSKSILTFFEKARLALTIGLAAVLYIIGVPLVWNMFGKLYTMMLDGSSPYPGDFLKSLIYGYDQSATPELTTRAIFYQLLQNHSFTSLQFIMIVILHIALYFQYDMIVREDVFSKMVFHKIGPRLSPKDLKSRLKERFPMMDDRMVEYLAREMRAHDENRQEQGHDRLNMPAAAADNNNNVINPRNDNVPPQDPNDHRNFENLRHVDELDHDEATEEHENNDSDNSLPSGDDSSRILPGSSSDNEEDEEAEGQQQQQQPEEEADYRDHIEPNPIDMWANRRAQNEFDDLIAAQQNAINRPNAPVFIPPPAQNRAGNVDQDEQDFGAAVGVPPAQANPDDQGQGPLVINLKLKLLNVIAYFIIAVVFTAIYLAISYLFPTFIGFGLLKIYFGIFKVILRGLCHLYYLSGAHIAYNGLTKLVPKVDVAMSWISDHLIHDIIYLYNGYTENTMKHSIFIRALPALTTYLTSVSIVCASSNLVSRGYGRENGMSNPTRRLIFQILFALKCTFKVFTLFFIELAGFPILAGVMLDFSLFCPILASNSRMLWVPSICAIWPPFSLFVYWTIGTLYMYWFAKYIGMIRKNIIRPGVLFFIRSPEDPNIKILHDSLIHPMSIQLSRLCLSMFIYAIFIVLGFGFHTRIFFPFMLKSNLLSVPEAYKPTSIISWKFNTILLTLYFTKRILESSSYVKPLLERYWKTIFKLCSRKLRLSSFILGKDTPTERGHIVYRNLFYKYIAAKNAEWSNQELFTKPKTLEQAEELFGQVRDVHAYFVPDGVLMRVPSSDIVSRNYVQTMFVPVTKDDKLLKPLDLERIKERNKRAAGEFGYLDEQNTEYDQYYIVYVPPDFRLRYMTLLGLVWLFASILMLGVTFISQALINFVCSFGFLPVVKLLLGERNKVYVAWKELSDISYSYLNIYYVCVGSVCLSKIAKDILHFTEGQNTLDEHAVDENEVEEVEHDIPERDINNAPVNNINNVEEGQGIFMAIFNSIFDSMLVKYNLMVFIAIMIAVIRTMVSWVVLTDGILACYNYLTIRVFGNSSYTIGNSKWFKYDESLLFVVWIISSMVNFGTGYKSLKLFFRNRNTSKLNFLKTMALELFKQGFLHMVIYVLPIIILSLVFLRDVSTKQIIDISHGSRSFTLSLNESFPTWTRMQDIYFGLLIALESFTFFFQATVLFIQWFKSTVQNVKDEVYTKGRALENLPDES

| Molecule | binding result [2] | further results |
| --- | --- | --- |
| Doa10 E3 Ub ligase (endogenous, S. cerevisiae) (from UniProt P40318 1-1319) | – | level of MATα2f at 0 min (end of pulse) in wild-type cells relative to doa10Δ cells (100%), Ub-reference ^35S-pulse-chase [1]: 55% |
| Doa10 E3 Ub ligase (endogenous, S. cerevisiae) (from UniProt P40318 1-1319) (enzyme) | – | in vivo half-life of ^MNMATα2f, ^35S-pulse-chase, doa10Δ ubc4Δ cells (Doa10 absent) [1]: 35 min; in vivo half-life of ^MNMATα2f, ^35S-pulse-chase, ubc4Δ cells (Doa10 present) [1]: 9 min |
| B1 | no binding | – |
| B2 | no binding | – |
| B3 | no binding | – |
